In patent US20210332360:

Columns and labels:
Assay in all cases: flow
[1] = biological target: T1, DC-SIGN (SIGNR1/CD209b) (Mus musculus) (UniProt Q8CJ91); conditions: after the 5' primer region all dT replaced by 4 (alpha-D-mannose-triazole-modified C8-alkyne-dU); counter-target; 3.5-fold weaker than human
T1 sequence: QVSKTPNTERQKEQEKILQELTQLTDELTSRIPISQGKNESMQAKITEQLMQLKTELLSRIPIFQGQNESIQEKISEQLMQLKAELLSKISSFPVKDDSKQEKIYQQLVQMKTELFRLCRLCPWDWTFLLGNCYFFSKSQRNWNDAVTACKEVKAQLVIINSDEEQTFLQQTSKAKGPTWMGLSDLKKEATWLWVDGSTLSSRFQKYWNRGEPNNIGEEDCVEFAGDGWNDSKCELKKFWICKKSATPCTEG

[2] = biological target: T2, DC-SIGN (DC-SIGNR/CD299) (Homo sapiens) (UniProt Q9H2X3); conditions: after the 5' primer region all dT replaced by 4 (alpha-D-mannose-triazole-modified C8-alkyne-dU); particle-displayed; SB with Mg, Ca, Mn
T2 sequence: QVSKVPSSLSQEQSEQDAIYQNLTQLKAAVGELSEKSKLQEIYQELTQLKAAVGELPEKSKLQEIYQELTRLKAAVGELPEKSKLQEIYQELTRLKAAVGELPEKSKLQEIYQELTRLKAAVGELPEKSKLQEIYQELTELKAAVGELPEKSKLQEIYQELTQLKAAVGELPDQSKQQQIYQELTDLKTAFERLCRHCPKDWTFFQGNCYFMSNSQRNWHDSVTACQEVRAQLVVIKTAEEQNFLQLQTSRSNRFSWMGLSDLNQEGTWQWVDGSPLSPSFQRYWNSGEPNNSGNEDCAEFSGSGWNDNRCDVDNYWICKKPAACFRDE

[3] = biological target: T3, Pisum sativum agglutinin (PSA) (Pisum sativum) (UniProt P02867+P02867); conditions: counter-target
T3 sequence 1: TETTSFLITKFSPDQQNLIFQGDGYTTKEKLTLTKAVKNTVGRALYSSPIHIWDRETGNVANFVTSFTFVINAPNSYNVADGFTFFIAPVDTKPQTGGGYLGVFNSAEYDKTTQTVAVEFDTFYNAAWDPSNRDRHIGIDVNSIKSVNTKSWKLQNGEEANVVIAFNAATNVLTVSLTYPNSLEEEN
T3 sequence 2: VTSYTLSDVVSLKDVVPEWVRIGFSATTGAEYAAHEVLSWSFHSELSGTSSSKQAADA

For “GATCCCAGTCCGAAGTAATCCAAGGGTAATTGGGAAATAAGGATGGGGTAATATGCAACCCTTGTGCAAACGGCTATAGG [D1]”, which Kd [1] is on record?
The Kd was 12.5 nM.

What about the Kd [2] of the same sequence?
The Kd was 3.6 nM.

“GATCCCAGTCCGAAGTAATCGTTGCATCTGCACGACTGGTGAGCTTGAGTGGCAGAAGAACTTGTGCAAACGGCTATAGG [3-1m]” was tested. Which Kd ([3]; after the 5' primer region all dT replaced by 4 (alpha-D-mannose-triazole-modified C8-alkyne-dU), natural dC) did it give?
The Kd was greater than 1000 nM.

How did the Kd ([3]; after the 5' primer region (GATCCCAGTCCGAAGTAATC, natural) all dT replaced by 4 (alpha-D-mannose-triazole-modified C8-alkyne-dU) and all dC by 2 (5-formyl-dC)) turn out when “GATCCCAGTCCGAAGTAATCGTTGCATCTGCACGACTGGTGAGCTTGAGTGGCAGAAGAACTTGTGCAAACGGCTATAGG [3-1]” was run?
Its Kd is greater than 1000 nM.
